Reference: US20230295312A1 (AKESO BIOPHARMA, published 2023)
Positions count from the first letter of the chain named.

T1: human IL4RA-hFc (human, UniProt P24394 26-232)
T1 construct: mature; Coating antigen in ELISA
T1 sequence (looked up): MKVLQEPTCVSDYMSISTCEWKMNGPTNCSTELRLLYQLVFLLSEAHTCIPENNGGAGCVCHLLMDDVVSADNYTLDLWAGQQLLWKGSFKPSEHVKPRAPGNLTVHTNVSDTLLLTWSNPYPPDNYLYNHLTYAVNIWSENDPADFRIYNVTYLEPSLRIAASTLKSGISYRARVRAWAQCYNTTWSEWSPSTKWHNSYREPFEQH

B1: 13E5 (antibody, V domains shown)
VH: EVQLQQSGPELVKPGASVKISCKTSGYTFTEYTIHWVKQNHGKSLEWIGGINPNNGGTVYNQNFKGKATLTVDKSSSTAYMELRSLTSEDSAVYYCARVRRGMDYWGQGTSVTVSS
VL: DIVMTQSHKFMSTSVGDRVSITCKASQDVTTAVAWYQQKPGQSPKLLIYSASYRYTGVPDRFTGSGSGTDFTFTISSVQAEDLAVYYCQQHYSAPWTFGGGTNLEIK
notes: Murine hybridoma antibody purified on protein A; also called murine antibody 13E5; antibody secreted by hybridoma LT008 (IL4RA-13E5)
B2: 18H7 (antibody, V domains shown)
VH: DVKLVESGGDLVNLGGSLKLSCAASGFTFSSSYMSWVRQTPERRLELVAAINSNGGKTYYPDTVKGRFTISRDNAKNTLYLQMSGLKTEDTALYYCTRQRGNYVGAMDYWGQGTSVTVSS
VL: B1 VL with T30S, A34V, K45T, Q89H, H91Y, S93G, A94S, W96P, N103K
notes: Murine hybridoma antibody purified on protein A; also called murine antibody 18H7; antibody secreted by hybridoma LT009 (IL4RA-18H7)

What was measured:
[1] = molecular target: T1, human IL4RA-hFc; test: competitive ELISA vs IL4-N-His; Ab 3 ug/mL
Protocol: (§1) The ELISA plates were coated with human IL4RA-hFc and blocked before the antibodies were added. […] After the plates were washed, mouse anti-His, HRP (purchased from CoWin Biosciences, Cat No. CW0285A) was added for incubation. The plates were subjected to another wash. Chromogenic reaction was started by adding TMB (Neogen, 308177) and was then terminated. At the end of the reaction, the OD value at 450 nm wavelength was measured by a plate reader, and was analyzed and processed by SoftMax Pro 6.2.1.
(§2) By 4-parameter logistic regression of absorbance vs. antibody concentration, the blocking EC₅₀ of the antibodies was calculated.

[2] = molecular target: T1, human IL4RA-hFc; test: competitive ELISA; blocks IL4-N-His binding to coated IL4RA-hFc
[3] = molecular target: T1, human IL4RA-hFc; test: indirect ELISA, antigen coated 1 ug/mL
Protocol: Procedures: The ELISA plates were coated with human IL4RA-hFc or human IL4RA-mFc and were incubated, and target antibodies were added after blocking. […] The plates were incubated and washed before TMB (Neogen, 308177) was added for chromogenic reaction. At the end of the reaction, the absorbance at 450 nm was measured by a plate reader. The data were analyzed by SoftMax Pro 6.2.1.

[4] = molecular target: T1, human IL4RA-hFc; test: competitive ELISA; blocks IL4-N-His (0.15 ug/ml) binding to coated IL4RA-hFc (2 ug/mL)
Protocol: as §1, with “CW0285M)” for “CW0285A)”
as §2

Binder | OD450 [1] | EC50 [2] | EC50 [3] | EC50 [4]
B1 | 0.053 | 3 nM | 0.084 nM | 
B2 |  |  | 0.068 nM | 2.71 nM
